Measurements published in patent US20130109737A1 (published 2013).

B1: Smc1a (other, mouse (murine ES cells), UniProt Q9CU62 1-1233, looked up)
chain: MGFLKLIEIENFKSYKGRQIIGPFQRFTAIIGPNGSGKSNLMDAISFVLGEKTSNLRVKTLRDLIHGAPVGKPAANRAFVSMVYSEEGAEDRTFARVIVGGSSEYKINNKVVQLHEYSEELEKLGILIKARNFLVFQGAVESIAMKNPKERTALFEEISRSGELAQEYDKRKKEMVKAEEDTQFNYHRKKNIAAERKEAKQEKEEADRYQRLKDEVVRAQVQLQLFKLYHNEVEIEKLNKELASKNKEIEKDKKRMDKVEDELKEKKKELGKMMREQQQIEKEIKEKDSELNQKRPQYIKAKENTSHKIKKLEAAKKSLQNAQKHYKKRKGDMDELEKEMLSVEKARQEFEERMEEESQSQGRDLTLEENQVKKYHRLKEEASKRAATLAQELEKFNRDQKADQDRLDLEERKKVETEAKIKQKLREIEENQKRIEKLEEYITTSKQSLEEQKKLEGELTEEVEMAKRRIDEINKELNQVMEQLGDARIDRQESSRQQRKAEIMESIKRLYPGSVYGRLIDLCQPTQKKYQIAVTKVLGKNMDAIIVDSEKTGRDCIQYIKEQRGEPETFLPLDYLEVKPTDEKLRELKGAKLVIDVIRYEPPHIKKALQYACGNALVCDNVEDARRIAFGGHQRHKTVALDGTLFQKSGVISGGASDLKAKARRWDEKAVDKLKEKKERLTEELKEQMKAKRKEAELRQVQSQAHGLQMRLKYSQSDLEQTKTRHLALNLQEKSKLESELANFGPRINDIKRIIQSREREMKDLKEKMNQVEDEVFEEFCREIGVRNIREFEEEKVKRQNEIAKKRLEFENQKTRLGIQLDFEKNQLKEDQDKVHMWEQTVKKDENEIEKLKKEEQRHMKIIDETMAQLQDLKNQHLAKKSEVNDKNHEMEEIRKKLGGANKEMTHLQKEVTAIETKLEQKRSDRHNLLQACKMQDIKLPLSKGTMDDISQEEGSSQGEESVSGSQRTSSIYAREALIEIDYGDLCEDLKDAQAEEEIKQEMNTLQQKLNEQQSVLQRIAAPNMKAMEKLESVRDKFQETSDEFEAARKRAKKAKQAFEQIKKERFDRFNACFESVATNIDEIYKALSRNSSAQAFLGPENPEEPYLDGINYNCVAPGKRFRPMDNLSGGEKTVAALALLFAIHSYKPAPFFVLDEIDAALDNTNIGKVANYIKEQSTCNFQAIVISLKEEFYTKAESLIGVYPEQGDCVISKVLTFDLTKYPDANPNPNEQ
notes: Endogenous protein of murine ES cells; also called cohesin core complex protein Smc1a
B2: Smc3 (other, mouse (murine ES cells), UniProt Q9CW03 1-1217, looked up)
chain: MYIKQVIIQGFRSYRDQTIVDPFSSKHNVIVGRNGSGKSNFFYAIQFVLSDEFSHLRPEQRLALLHEGTGPRVISAFVEIIFDNSDNRLPIDKEEVSLRRVIGAKKDQYFLDKKMVTKNDVMNLLESAGFSRSNPYYIVKQGKINQMATAPDSQRLKLLREVAGTRVYDERKEESISLMKETEGKREKINELLKYIEERLHTLEEEKEELAQYQKWDKMRRALEYTIYNQELNETRAKLDELSAKRETSGEKSRQLRDAQQDARDKMEDIERQVRELKTKISAMKEEKEQLSAERQEQIKQRTKLELKAKDLQDELAGNSEQRKRLLKERQKLLEKIEEKQKELAETEPKFNSVKEKEERGIARLAQATQERTDLYAKQGRGSQFTSKEERDKWIKKELKSLDQAINDKKRQIAAIHKDLEDTEANKEKNLEQYNKLDQDLNEVKARVEELDRKYYEVKNKKDELQSERNYLWREENAEQQALAAKREDLEKKQQLLRAATGKAILNGIDSINKVLEHFRRKGINQHVQNGYHGIVMNNFECEPAFYTCVEVTAGNRLFYHIVDSDEVSTKILMEFNKMNLPGEVTFLPLNKLDVRDTAYPETNDAIPMISKLRYNPRFDKAFKHVFGKTLICRSMEVSTQLARAFTMDCITLEGDQVSHRGALTGGYYDTRKSRLELQKDVRKAEEELGELEAKLNENLRRNIERINNEIDQLMNQMQQIETQQRKFKASRDSILSEMKMLKEKRQQSEKTFMPKQRSLQSLEASLHAMESTRESLKAELGTDLLSQLSLEDQKRVDALNDEIRQLQQENRQLLNERIKLEGIITRVETYLNENLRKRLDQVEQELNELRETEGGTVLTATTSELEAINKRVKDTMARSEDLDNSIDKTEAGIKELQKSMERWKNMEKEHMDAINHDTKELEKMTNRQGMLLKKKEECMKKIRELGSLPQEAFEKYQTLSLKQLFRKLEQCNTELKKYSHVNKKALDQFVNFSEQKEKLIKRQEELDRGYKSIMELMNVLELRKYEAIQLTFKQVSKNFSEVFQKLVPGGKATLVMKKGDVEGSQSQDEGEGSGESERGSGSQSSVPSVDQFTGVGIRVSFTGKQGEMREMQQLSGGQKSLVALALIFAIQKCDPAPFYLFDEIDQALDAQHRKAVSDMIMELAVHAQFITTTFRPELLESADKFYGVKFRNKVSHIDVITAEMAKDFVEDDTTHG
notes: Endogenous protein of murine ES cells; also called cohesin core complex protein Smc3
B3: Med23 (other, mouse (murine ES cells), UniProt Q80YQ2 1-1367, looked up)
chain: METQLQSIFEEVVKTEIIEEAFPGMFMDTPEDEKTKLISCLAAFRQFWSGLSQESHEQCVQWIVKFIHGQHSPKRISFLYDCLAMAVETGLLPPRMVCESLINSDSLEWERTQLWALTFKLVRKIIGGVDYKGVRDLLKAILEKILTIPNTVSSAVVQQLLAAREVIAYILERNACLLPAYFAVTEIRKLYPEGKLPHWLLGNLVSDFVDTFRPTARINSICGRCSLLPVVNNSGAICNSWKLDPATLRFPLKGLLPYDKDLFEPQTALLRYVLEQPYSRDMVCNMLGLNKQHKQRCPVLEDQLVDLVVYAMERSETEEKFDDGGTSQLLWQHLSSQLIFFVLFQFASFPHMVLSLHQKLAGRGLIKGRDHLMWVLLQFISGSIQKNALADFLPVMKLFDLLYPEKECIPVPDINKPQSTHAFAMTCIWIHLNRKAQNGDSTLQIPIPHSLKLHHEFLQQSLRNKSLQMNDYKIALLCNAYSTNSECFTLPMGALVETIYGNGIMRVPLPGTSCLASASVTPLPMNLLDSLTVHAKMSLIHSIATRVIKLAHTKSSVALAPALVETYSRLLVYMEIESLGIKGFISQLLPTVFKSHAWGILHTLLEMFSHRMHHIQPHYRVQLLSHLHTLAAVAQTNQNQLHLCVESTALRLITALGSSEVQPQFTRFLNDPKTVLSAESEELNRALILTLARATHVTDFFTGSDSIQGTWCKDILQTIMNFTPHNWASHTLSCFPAPLQAFFKQNNVPQESRFNLKKNVEEEYRKWKSMTDENEIITQFSVQGFPPLFLCLLWKMLLETDHISQIGYKVLERIGARALVAHVRTFADFLVYEFSTSAGGQQLNKCIEILNDMVWKYNIVTLDRLILCLAMRSHEGNEAQVCYFIIQLLLLKPNDFRNRVSDFVKENSPEHWLQSDWHTKHMSYHKKYPEKLYFEGLAEQVDPPVPIQSPYLPIYFGNVCLRFLPVFDIVIHRFLELLPVSKSLETLLDHLGGLYKFHDRPVTYLYNTLHYYEMCLRNRDHLKRKLVHAIIGSLKDNRPQGWCLSDTYLKHAMNAREDNPWVPEDSYYCKLIGRLVDTMAGKSPGPFPNCDWRFNEFPNPAAHALHVTCVELMALAVPGKDVGNALLNVVLKSQPLVPRENITAWMNAIGLIITALPEPYWIVLHDRIVNVISSSSLTSETEWVGYPFRLFDFTACHQSYSEMSCSYTLALAHAVWHHSSIGQLSLIPKFLTEALLPVVKTEFQLLYVYHLVGPFLQRFQQERTRCMIEIGVAFYDMLLNVDQCSTHLNYMDPICDFLYHMKYMFTGDSVKEQVEKIICNLKPALKLRLRFITHISKMEPAVPPQALNSGSPAPQSNQVPASLPVTQ
notes: Endogenous protein in crosslinked chromatin or nuclear extract of V6.5 murine ES cells; also called mediator subunit Med23

Columns and labels:
Med23 [1] = target: B3; assay: ChIP-western: IP of crosslinked, sheared murine ES cell chromatin with anti-Smc1a, western blot for Med23
From the text: (§1) FIG. 3 Mediator and cohesin interact. a, Mediator (Med23) is detected by western blot (WB) when crosslinked, sheared chromatin is subjected to immunoprecipitation with antibodies against mediator (Med1, Med12) or cohesin (Smc1a, Smc3). WCE, whole-cell extract. b, Cohesin (Smc1a, Smc3) and mediator (Med23) are detected by western blot after immunoprecipitation of uncrosslinked ES cell nuclear extracts (NE) with a Nipb1 antibody. c, Cohesin (Smc3) and Nipb1 co-purify with mediator. The input fractions and immunoprecipitated eluate (IP Eluate) were examined by western blot and silver staining. Molecular weight (MW) markers (kDa) are shown.
(§2) For ChIP-Western, same conditions as for ChIP-Seq were used. For co-immunoprecipitation, murine ES cells were harvested in cold PBS and extracted for 30 min at 4° C. in TNEN250 (50 mM Tris pH 7.5, 5 mM EDTA, 250 mM NaCl, 0.1% NP-40) with protease inhibitors. After centrifugation, supernatant was mixed to 2 volumes of TNENG (50 mM Tris pH 7.5, 5 mM EDTA, 100 mM NaCl, 0.1% NP-40, 10% glycerol).

Med23 [2] = target: B3; assay: ChIP-western: IP of crosslinked, sheared murine ES cell chromatin with anti-Smc3, western blot for Med23
From the text: as §1, §2

Med1 = target: T1, Med1 (mouse (murine ES cells), UniProt Q925J9 1-1575); assay: ChIP-western: IP of crosslinked, sheared murine ES cell chromatin with anti-Med1, western blot for Med23
T1 construct: Endogenous protein immunoprecipitated from crosslinked murine ES cell chromatin; also called CRSP1/TRAP220; mediator subunit Med1
From the text: as §1, §2

Med12 = target: T2, Med12 (mouse (murine ES cells), UniProt A2AGH6 1-2190); assay: ChIP-western: IP of crosslinked, sheared murine ES cell chromatin with anti-Med12, western blot for Med23
T2 construct: Endogenous protein immunoprecipitated from crosslinked murine ES cell chromatin; also called mediator subunit Med12
From the text: as §1, §2

T1 sequence (Q925J9 whole entry): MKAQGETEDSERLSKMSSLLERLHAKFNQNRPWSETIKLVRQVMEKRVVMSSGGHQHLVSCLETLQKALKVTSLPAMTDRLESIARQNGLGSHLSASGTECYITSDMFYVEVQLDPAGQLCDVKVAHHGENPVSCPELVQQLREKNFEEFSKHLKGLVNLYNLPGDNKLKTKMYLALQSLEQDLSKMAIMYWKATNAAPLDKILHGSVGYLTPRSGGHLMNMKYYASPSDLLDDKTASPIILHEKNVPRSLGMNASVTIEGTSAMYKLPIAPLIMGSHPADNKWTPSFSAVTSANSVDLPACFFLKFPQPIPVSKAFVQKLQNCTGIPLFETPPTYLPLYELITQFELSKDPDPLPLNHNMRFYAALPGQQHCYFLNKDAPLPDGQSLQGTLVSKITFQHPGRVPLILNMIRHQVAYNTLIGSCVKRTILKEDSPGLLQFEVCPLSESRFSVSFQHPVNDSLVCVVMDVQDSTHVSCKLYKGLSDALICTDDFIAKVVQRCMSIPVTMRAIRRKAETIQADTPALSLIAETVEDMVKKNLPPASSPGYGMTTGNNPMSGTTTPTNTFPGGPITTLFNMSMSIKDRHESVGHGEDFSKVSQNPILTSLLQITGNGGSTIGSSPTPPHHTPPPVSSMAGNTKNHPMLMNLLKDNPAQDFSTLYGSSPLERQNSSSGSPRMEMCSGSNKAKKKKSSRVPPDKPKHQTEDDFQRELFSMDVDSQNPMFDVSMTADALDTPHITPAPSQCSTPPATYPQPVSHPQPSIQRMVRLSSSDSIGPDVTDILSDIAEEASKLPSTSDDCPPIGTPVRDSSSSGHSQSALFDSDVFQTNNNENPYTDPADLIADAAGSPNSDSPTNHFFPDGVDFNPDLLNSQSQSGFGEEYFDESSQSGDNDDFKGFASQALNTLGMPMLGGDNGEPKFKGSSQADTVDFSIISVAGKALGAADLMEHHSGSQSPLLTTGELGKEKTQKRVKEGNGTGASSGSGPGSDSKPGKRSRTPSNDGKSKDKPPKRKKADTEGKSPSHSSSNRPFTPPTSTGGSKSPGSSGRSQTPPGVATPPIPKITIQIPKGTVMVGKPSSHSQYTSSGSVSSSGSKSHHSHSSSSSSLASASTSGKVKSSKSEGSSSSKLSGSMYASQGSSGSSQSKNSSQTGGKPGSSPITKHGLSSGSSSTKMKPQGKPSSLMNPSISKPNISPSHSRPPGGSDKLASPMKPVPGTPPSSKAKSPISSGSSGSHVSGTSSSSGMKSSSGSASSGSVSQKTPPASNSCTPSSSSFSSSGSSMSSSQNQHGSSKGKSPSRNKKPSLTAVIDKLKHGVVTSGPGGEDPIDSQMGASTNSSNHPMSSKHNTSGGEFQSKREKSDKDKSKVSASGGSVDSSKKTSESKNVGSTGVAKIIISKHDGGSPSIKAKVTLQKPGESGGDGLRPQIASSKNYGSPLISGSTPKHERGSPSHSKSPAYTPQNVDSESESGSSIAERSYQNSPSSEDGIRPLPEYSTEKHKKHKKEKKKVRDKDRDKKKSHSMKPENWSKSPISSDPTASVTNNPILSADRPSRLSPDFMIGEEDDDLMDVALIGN
T2 sequence (A2AGH6 whole entry): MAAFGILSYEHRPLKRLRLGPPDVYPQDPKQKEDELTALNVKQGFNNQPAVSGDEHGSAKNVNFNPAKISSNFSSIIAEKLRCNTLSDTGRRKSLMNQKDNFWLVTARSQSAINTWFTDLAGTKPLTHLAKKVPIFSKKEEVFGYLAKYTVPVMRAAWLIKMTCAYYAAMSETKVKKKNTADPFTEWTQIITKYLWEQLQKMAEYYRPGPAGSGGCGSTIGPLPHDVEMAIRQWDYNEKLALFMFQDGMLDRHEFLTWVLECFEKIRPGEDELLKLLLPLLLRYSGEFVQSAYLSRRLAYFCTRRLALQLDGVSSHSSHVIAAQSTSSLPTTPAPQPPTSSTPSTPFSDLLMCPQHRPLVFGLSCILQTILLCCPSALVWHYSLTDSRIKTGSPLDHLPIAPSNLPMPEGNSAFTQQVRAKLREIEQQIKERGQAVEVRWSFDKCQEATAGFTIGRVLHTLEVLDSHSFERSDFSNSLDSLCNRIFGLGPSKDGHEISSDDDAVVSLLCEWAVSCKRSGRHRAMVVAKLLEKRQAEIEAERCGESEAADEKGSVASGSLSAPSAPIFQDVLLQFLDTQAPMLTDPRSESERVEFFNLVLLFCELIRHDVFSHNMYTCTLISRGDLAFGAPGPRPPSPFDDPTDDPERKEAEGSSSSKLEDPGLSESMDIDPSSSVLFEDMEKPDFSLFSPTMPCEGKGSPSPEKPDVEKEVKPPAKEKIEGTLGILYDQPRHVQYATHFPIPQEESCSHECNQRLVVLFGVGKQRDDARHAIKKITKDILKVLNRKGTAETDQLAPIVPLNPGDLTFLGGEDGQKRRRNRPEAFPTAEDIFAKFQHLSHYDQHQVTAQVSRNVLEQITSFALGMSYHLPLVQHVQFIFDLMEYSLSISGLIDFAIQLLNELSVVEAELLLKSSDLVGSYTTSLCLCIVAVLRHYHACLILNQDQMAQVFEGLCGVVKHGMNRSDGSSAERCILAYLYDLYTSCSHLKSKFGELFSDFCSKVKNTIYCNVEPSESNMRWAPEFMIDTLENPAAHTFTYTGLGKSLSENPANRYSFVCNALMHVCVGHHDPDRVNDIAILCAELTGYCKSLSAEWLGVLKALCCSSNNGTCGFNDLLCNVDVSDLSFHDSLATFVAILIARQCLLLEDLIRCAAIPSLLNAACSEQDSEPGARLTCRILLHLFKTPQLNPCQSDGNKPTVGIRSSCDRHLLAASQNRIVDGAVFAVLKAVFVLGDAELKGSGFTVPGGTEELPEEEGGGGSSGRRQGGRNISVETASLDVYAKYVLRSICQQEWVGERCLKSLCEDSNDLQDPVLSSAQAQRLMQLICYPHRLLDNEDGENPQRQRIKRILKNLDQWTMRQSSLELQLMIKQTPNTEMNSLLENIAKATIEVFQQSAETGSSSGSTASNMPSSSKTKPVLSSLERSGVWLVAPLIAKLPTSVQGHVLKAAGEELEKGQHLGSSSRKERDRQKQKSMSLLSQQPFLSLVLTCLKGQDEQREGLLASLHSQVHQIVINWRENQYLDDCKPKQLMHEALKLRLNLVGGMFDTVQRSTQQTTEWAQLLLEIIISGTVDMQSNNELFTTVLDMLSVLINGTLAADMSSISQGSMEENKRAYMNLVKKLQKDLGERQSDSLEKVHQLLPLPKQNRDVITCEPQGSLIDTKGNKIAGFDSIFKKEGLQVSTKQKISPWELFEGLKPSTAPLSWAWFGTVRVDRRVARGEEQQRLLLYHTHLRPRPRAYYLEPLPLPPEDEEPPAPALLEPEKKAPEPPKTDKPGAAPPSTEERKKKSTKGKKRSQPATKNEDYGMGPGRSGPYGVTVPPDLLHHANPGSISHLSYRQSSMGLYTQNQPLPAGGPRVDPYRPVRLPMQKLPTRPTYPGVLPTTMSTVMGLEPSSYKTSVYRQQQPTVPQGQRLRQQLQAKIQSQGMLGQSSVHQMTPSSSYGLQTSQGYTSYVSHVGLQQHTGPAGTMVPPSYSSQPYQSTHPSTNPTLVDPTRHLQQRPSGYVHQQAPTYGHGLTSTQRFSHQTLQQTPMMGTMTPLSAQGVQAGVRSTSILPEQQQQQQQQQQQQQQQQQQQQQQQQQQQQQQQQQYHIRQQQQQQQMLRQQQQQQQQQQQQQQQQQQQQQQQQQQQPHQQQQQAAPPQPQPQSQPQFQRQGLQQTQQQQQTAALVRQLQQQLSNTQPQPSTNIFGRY

Binder: B1
binding result (Med23 [1]): binds

Binder: B2
binding result (Med23 [2]): binds

Binder: B3
binding result (Med1): binds
binding result (Med12): binds
